One may read the Km as the substrate concentration at which the rate is half of its maximum. As usually defined, the kcat/Km is the turnover number divided by the Michaelis constant. By kcat is commonly meant the number of substrate molecules converted per active site and unit of time at saturation.

In paper PMC4270374 one finds Km, kcat/Km and kcat data, which are given here for 2 proteins.

Substrate in this series: O=c1ccn([C@@H]2O[C@H](COP(=O)(O)OP(=O)(O)O[C@H]3O[C@@H]([C@H](O)CO)[C@H](O)[C@H]3O)[C@@H](O)[C@H]2O)c(=O)[nH]1
Kind of series: purified protein.

The mark [1] stands for this setting: 25 mM HEPES, 125 mM NaCl, 20 mM dithionite, pH 7.5, 37 °C.

B1: MtUGM (Mycobacterium tuberculosis H37Rv) (protein)
chain: MQPMTARFDLFVVGSGFFGLTIAERVATQLDKRVLVLERRPHIGGNAYSEAEPQTGIEVHKYGAHLFHTSNKRVWDYVRQFTDFTDYRHRVFAMHNGQAYQFPMGLGLVSQFFGKYFTPEQARQLIAEQAAEIDTADAQNLEEKAISLIGRPLYEAFVKGYTAKQWQTDPKELPAANITRLPVRYTFDNRYFSDTYEGLPTDGYTAWLQNMAADHRIEVRLNTDWFDVRGQLRPGSPAAPVVYTGPLDRYFDYAEGRLGWRTLDFEVEVLPIGDFQGTAVMNYNDLDVPYTRIHEFRHFHPERDYPTDKTVIMREYSRFAEDDDEPYYPINTEADRALLATYRARAKSETASSKVLFGGRLGTYQYLDMHMAIASALNMYDNVLAPHLRDGVPLLQDGA
For B1, for the setting “pH 7.5, 37.0 °C”, the Michaelis constant (Km) amounted to 78 ± 16 µM and the specificity constant (kcat/Km) was determined as 910000 ± 150000 M⁻¹ s⁻¹.

B2: AfUGM (wild-type) (Aspergillus fumigatus) (protein)
chain: MTHPDISVDVLVIGAGPTGLGAAKRLNQIDGPSWMIVDSNETPGGLASTDVTPEGFLYDVGGHVIFSHYKYFDDCLDEALPKEDDWYTHQRISYVRCQGQWVPYPFQNNISMLPKEEQVKCIDGMIDAALEARVANTKPKTFDEWIVRMMGTGIADLFMRPYNFKVWAVPTTKMQCAWLGERVAAPNLKAVTTNVILGKTAGNWGPNATFRFPARGGTGGIWIAVANTLPKEKTRFGEKGKVTKVNANNKTVTLQDGTTIGYKKLVSTMAVDFLAEAMNDQELVGLTKQLFYSSTHVIGVGVRGSRPERIGDKCWLYFPEDNCPFYRATIFSNYSPYNQPEASKKLPTMQLADGSRPQSTEAKEGPYWSIMLEVSESSMKPVNQETILADCIQGLVNTEMLKPTDEIVSTYHRRFDHGYPTPTLEREGALTQILPKLQDKDIWSRGRFGSWRYEVGNQDHSFMLGVEAVDNIVNGAVELTLNYPDFVNGRQNTERRLVDGAQVFAKSKAQ
As to B2, under setting [1], the Km worked out at 110 ± 15 µM, the kcat was 72 ± 4 s⁻¹ and the kcat/Km amounted to 650000 ± 90000 M⁻¹ s⁻¹.
